Data from PMC4465127 (Nature Communications, 2015).

B1: LET-23 extracellular region (sLET-23) (domain or fragment, C. elegans, UniProt P24348 21-819, looked up)
chain: FGNSNAQLWKRCVSPQDCLCSGTTNGISRYGTGNILEDLETMYRGCRRVYGNLEITWIEANEIKKWRESTNSTVDPKNEDSPLKSINFFDNLEEIRGSLIIYRANIQKISFPRLRVIYGDEVFHDNALYIHKNDKVHEVVMRELRVIRNGSVTIQDNPKMCYIGDKIDWKELLYDPDVQKVETTNSHQHCYQNGKSMAKCHESCNDKCWGSGDNDCQRVYRSVCPKSCSQCFYSNSTSSYECCDSACLGGCTGHGPKNCIACSKYELDGICIETCPSRKIFNHKTGRLVFNPDGRYQNGNHCVKECPPELLIENDVCVRHCSDGHHYDATKDVRECEKCRSSSCPKICTVDGHLTNETLKNLEGCEQIDGHLIIEHAFTYEQLKVLETVKIVSEYITIVQQNFYDLKFLKNLQIIEGRKLHNVRWALAIYQCDDLEELSLNSLKLIKTGAVLIMKNHRLCYVSKIDWSSIITSKGKDNKPSLAIAENRDSKLCETEQRVCDKNCNKRGCWGKEPEDCLECKTWKSVGTCVEKCDTKGFLRNQTSMKCERCSPECETCNGLGELDCLTCRHKTLYNSDFGNRMECVHDCPVSHFPTQKNVCEKCHPTCYDNGCTGPDSNLGYGGCKQCKYAVKYENDTIFCLQSSGMNNVCVENDLPNYYISTYDTEGVIETHCEKCSISCKTCSSAGRNVVQNKCVCKHVEYQPNPSERICMDQCPVNSFMVPDTNNTVCKKCHHECDQNYHCANGQSTGCQKCKNFTVFKGDIAQCVSECPKNLPFSNPANGECLDYDIASRQRKTRM
notes: signal peptide in the construct; LET-23, the C. elegans EGFR orthologue, extracellular region with domains I-V; Glycosylated (six predicted N-glycosylation sites); Constitutive dimer by SEC and SE-AUC; also called isolated LET-23 extracellular region; C. elegans EGFR extracellular region; source: Sf9 cells (baculovirus), purified from conditioned medium (Ni-NTA, cation exchange, Superose 6)
B2: sLET-23ΔIV/V (LET-23 extracellular region with domains IV and V deleted) (domain or fragment, C. elegans, UniProt P24348 21-539, looked up)
chain: FGNSNAQLWKRCVSPQDCLCSGTTNGISRYGTGNILEDLETMYRGCRRVYGNLEITWIEANEIKKWRESTNSTVDPKNEDSPLKSINFFDNLEEIRGSLIIYRANIQKISFPRLRVIYGDEVFHDNALYIHKNDKVHEVVMRELRVIRNGSVTIQDNPKMCYIGDKIDWKELLYDPDVQKVETTNSHQHCYQNGKSMAKCHESCNDKCWGSGDNDCQRVYRSVCPKSCSQCFYSNSTSSYECCDSACLGGCTGHGPKNCIACSKYELDGICIETCPSRKIFNHKTGRLVFNPDGRYQNGNHCVKECPPELLIENDVCVRHCSDGHHYDATKDVRECEKCRSSSCPKICTVDGHLTNETLKNLEGCEQIDGHLIIEHAFTYEQLKVLETVKIVSEYITIVQQNFYDLKFLKNLQIIEGRKLHNVRWALAIYQCDDLEELSLNSLKLIKTGAVLIMKNHRLCYVSKIDWSSIITSKGKDNKPSLAIAENRDSKLCETEQRVCDKNCNKRGCWGKEPEDCLE
notes: signal peptide in the construct; LET-23 of C. elegans, extracellular domains I-III (domains IV and V deleted); source: Sf9 cells (baculovirus), purified from conditioned medium (Ni-NTA, cation exchange, Superose 6)
B3: sLET-23ΔV (LET-23 extracellular region with domain V deleted) (domain or fragment, C. elegans, UniProt P24348 21-645, looked up)
chain: FGNSNAQLWKRCVSPQDCLCSGTTNGISRYGTGNILEDLETMYRGCRRVYGNLEITWIEANEIKKWRESTNSTVDPKNEDSPLKSINFFDNLEEIRGSLIIYRANIQKISFPRLRVIYGDEVFHDNALYIHKNDKVHEVVMRELRVIRNGSVTIQDNPKMCYIGDKIDWKELLYDPDVQKVETTNSHQHCYQNGKSMAKCHESCNDKCWGSGDNDCQRVYRSVCPKSCSQCFYSNSTSSYECCDSACLGGCTGHGPKNCIACSKYELDGICIETCPSRKIFNHKTGRLVFNPDGRYQNGNHCVKECPPELLIENDVCVRHCSDGHHYDATKDVRECEKCRSSSCPKICTVDGHLTNETLKNLEGCEQIDGHLIIEHAFTYEQLKVLETVKIVSEYITIVQQNFYDLKFLKNLQIIEGRKLHNVRWALAIYQCDDLEELSLNSLKLIKTGAVLIMKNHRLCYVSKIDWSSIITSKGKDNKPSLAIAENRDSKLCETEQRVCDKNCNKRGCWGKEPEDCLECKTWKSVGTCVEKCDTKGFLRNQTSMKCERCSPECETCNGLGELDCLTCRHKTLYNSDFGNRMECVHDCPVSHFPTQKNVCEKCHPTCYDNGCTGPDSNLGYGGCK
notes: signal peptide in the construct; LET-23 of C. elegans, extracellular domains I-IV (domain V deleted); Dimer by SEC-MALS, SE-AUC and SAXS; source: Sf9 cells (baculovirus), purified from conditioned medium (Ni-NTA, cation exchange, Superose 6)

Key:
[1] = target: the molecule itself; assay: AUC; sedimentation equilibrium, without ligand; 1 to 8 μM receptor, 10 mM Hepes pH 8.0, 150 mM NaCl, 20 °C, three speeds; dimer to monomers
[2] = target: the molecule itself; assay: SEC; unliganded sLET-23 during initial purification; Superose 6 10/300 GL, 10 mM Hepes pH 8.0, 150 mM NaCl
[3] = target: the molecule itself; assay: AUC; sedimentation equilibrium with 50-70 μM LIN-3^EGF added; 1 to 8 μM receptor, 10 mM Hepes pH 8.0, 150 mM NaCl, 20 °C, three speeds; dimer to monomers
[4] = target: the molecule itself; assay: SAXS; home source, I(0)/c, without ligand; 4 °C, pH 8.0, 1.2 to 5 mg/ml protein

Row | Protein | Kd [1] [µM] | stoichiometry N [2] | Kd [3] [µM] | stoichiometry N [4]
1 | B1 | < 1 | 2 |  | 
2 | B2 | 30 |  | 5 | 
3 | B3 |  |  |  | 2
